Experimental findings from US20180256645A1 are described below.

The target of this assay is murine/mouse full length CXCR6 (chemokine receptor 6), expressed on transduced murine CD8+ T cells (murine/mouse) (UniProt Q9EQ16). The assay is described as follows: cell-based or functional assay.
Sequence of UniProt Q9EQ16 (Q9EQ16 1-350): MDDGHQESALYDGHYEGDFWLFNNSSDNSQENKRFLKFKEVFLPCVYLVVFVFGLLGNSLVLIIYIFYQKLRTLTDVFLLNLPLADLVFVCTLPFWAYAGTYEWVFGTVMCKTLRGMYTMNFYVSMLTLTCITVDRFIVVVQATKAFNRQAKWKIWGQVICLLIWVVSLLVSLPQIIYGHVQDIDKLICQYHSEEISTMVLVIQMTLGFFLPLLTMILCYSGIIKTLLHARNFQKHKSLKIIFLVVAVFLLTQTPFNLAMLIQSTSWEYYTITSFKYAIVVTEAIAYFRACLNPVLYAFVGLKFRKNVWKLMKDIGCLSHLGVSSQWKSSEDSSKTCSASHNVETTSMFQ

“recombinant CXCL16 (SEQ ID NO: 9) (Peprotech, Hamburg) (from UniProt Q8BSU2 27-114) (ligand)” had an internalisation and recycling of CXCR6 (live confocal fluorescence microscopy) of 30 min.
